# Data as given in US20250340902A1, “GENE THERAPY FOR BVES-RELATED DISORDERS” (OHIO STATE INNOVATION FOUNDATION, priority 2022, published 2025).
# Experiments:
# Assay in all cases: anti-HA co-IP from muscle, MS; CTRL 0
# [1] = molecular target: Charged multivesicular body protein 4b (Mus musculus) (UniProt Q9D8B3)
# [2] = molecular target: NEDD8-conjugating enzyme Ubc12 (Mus musculus) (UniProt P61082)
# [3] = molecular target: Gamma-sarcoglycan (Mus musculus) (UniProt P82348)
# [4] = molecular target: Long-chain specific acyl-CoA dehydrogenase, mitochondrial (Mus musculus) (UniProt P51174)
# Ankyrin-2 (Mus musculus) = Ankyrin-2 (Mus musculus) (UniProt Q8C8R3)
# Sarcospan (Mus musculus) = Sarcospan (Mus musculus) (UniProt Q62147)
# [5] = molecular target: NADH dehydrogenase [ubiquinone] iron-sulfur protein 3, mitochondrial (Mus musculus) (UniProt Q9DCT2)
# [6] = molecular target: Popeye domain-containing protein 2 (Mus musculus) (UniProt Q9ES82)
# [7] = molecular target: Band 3 anion transport protein (Mus musculus) (UniProt P04919)
# [8] = molecular target: Nucleolar protein 12 (Mus musculus) (UniProt Q8BG17)
# [9] = molecular target: Sodium channel protein type 4 subunit alpha (Mus musculus) (UniProt Q9ER60)
# Myocilin (Mus musculus) = Myocilin (Mus musculus) (UniProt O70624)
# Cullin-2 (Mus musculus) = Cullin-2 (Mus musculus) (UniProt Q9D4H8)
# [10] = molecular target: Translocation protein SEC62 (Mus musculus) (UniProt Q8BU14)
# [11] = molecular target: Endoplasmic reticulum transmembrane helix translocase (Mus musculus) (UniProt Q9EPE9)
# [12] = molecular target: Heparin cofactor 2 (Mus musculus) (UniProt P49182)
# [13] = molecular target: NADH dehydrogenase [ubiquinone] iron-sulfur protein 6, mitochondrial (Mus musculus) (UniProt P52503)
# [14] = molecular target: Transmembrane protein 201 (Mus musculus) (UniProt A2A8U2)
# [15] = molecular target: Actin-binding LIM protein 2 (Mus musculus) (UniProt Q8BL65)
# [16] = molecular target: Eukaryotic initiation factor 4A-III (Mus musculus) (UniProt Q91VC3)
# [17] = molecular target: Heterogeneous nuclear ribonucleoprotein H2 (Mus musculus) (UniProt P70333)
# [18] = molecular target: Ran GTPase-activating protein 1 (Mus musculus) (UniProt P46061)
# [19] = molecular target: Dystroglycan (Mus musculus) (UniProt Q62165)
# [20] = molecular target: Microtubule-associated protein 4 (Mus musculus) (UniProt P27546)
# [21] = molecular target: Nucleolar protein of 40 kDa (Mus musculus) (UniProt Q9ESX4)
# [22] = molecular target: U1 small nuclear ribonucleoprotein 70 kDa (Mus musculus) (UniProt Q62376)
# [23] = molecular target: EH domain-containing protein 2 (Mus musculus) (UniProt Q8BH64)
# [24] = molecular target: 60S ribosomal protein L15 (Mus musculus) (UniProt Q9CZM2)
# [25] = molecular target: 40S ribosomal protein S27 (Mus musculus) (UniProt Q6ZWU9)
# [26] = molecular target: Patatin-like phospholipase domain-containing protein 7 (Mus musculus) (UniProt A2AJ88)
# [27] = molecular target: F-box only protein 40 (Mus musculus) (UniProt P62932)
# [28] = molecular target: Haloacid dehalogenase-like hydrolase domain-containing protein 2 (Mus musculus) (UniProt Q3UGR5)
# Talin-2 (Mus musculus) = Talin-2 (Mus musculus) (UniProt Q71LX4)
# [29] = molecular target: Sodium/calcium exchanger 1 (Mus musculus) (UniProt P70414)
# Dysferlin (Mus musculus) = Dysferlin (Mus musculus) (UniProt Q9ESD7)
# [30] = molecular target: Phosphatidylinositol 5-phosphate 4-kinase type-2 beta (Mus musculus) (UniProt Q80XI4)
# [31] = molecular target: Casein kinase II subunit alpha (Mus musculus) (UniProt Q60737)
# [32] = molecular target: Nuclear mitotic apparatus protein 1 (Mus musculus) (UniProt E9Q7G0)
# [33] = molecular target: Delta-sarcoglycan (Mus musculus) (UniProt P82347)
# Chain of human BVES fused with 3xHA tag (Q8NE79 other isoform, or with tags, fused parts or gaps limits assumed): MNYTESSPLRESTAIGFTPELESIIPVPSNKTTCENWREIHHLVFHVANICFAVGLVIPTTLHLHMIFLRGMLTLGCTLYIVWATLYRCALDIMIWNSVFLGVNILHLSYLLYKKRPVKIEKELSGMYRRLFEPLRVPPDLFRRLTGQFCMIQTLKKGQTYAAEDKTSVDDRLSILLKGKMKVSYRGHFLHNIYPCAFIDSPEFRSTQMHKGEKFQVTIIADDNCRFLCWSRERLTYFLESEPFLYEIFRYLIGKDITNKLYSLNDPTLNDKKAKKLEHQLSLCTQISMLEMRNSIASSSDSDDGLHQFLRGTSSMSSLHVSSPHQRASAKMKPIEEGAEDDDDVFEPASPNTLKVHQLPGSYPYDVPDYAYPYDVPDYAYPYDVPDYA
# Chain of U1 small nuclear ribonucleoprotein 70 kDa (Mus musculus) (Q62376 2-448 limits assumed): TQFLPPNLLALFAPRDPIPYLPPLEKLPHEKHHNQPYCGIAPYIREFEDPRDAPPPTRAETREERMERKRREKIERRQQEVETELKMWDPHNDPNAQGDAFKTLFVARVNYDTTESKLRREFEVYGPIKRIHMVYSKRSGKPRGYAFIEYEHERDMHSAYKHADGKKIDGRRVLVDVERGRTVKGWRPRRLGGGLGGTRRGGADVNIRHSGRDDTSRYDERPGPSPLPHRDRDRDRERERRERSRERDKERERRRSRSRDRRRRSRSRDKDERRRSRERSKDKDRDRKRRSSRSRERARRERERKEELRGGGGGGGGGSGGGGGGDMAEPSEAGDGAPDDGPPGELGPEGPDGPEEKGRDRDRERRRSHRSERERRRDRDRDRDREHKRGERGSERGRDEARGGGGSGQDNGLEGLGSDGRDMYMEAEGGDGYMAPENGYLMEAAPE
# Chain of Charged multivesicular body protein 4b (Mus musculus) (Q9D8B3 2-224 limits assumed): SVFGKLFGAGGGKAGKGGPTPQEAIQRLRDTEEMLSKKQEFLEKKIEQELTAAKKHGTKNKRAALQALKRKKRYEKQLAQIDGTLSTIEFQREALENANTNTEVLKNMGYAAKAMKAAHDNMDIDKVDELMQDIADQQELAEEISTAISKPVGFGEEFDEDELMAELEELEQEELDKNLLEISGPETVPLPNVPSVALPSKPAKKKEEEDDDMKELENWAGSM
# Chain of NADH dehydrogenase [ubiquinone] iron-sulfur protein 6, mitochondrial (Mus musculus) (P52503 21-116 limits assumed): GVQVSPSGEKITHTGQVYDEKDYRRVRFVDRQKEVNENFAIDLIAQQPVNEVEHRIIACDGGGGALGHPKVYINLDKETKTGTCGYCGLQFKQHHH
# Chain of Ran GTPase-activating protein 1 (Mus musculus) (P46061 2-589 limits assumed): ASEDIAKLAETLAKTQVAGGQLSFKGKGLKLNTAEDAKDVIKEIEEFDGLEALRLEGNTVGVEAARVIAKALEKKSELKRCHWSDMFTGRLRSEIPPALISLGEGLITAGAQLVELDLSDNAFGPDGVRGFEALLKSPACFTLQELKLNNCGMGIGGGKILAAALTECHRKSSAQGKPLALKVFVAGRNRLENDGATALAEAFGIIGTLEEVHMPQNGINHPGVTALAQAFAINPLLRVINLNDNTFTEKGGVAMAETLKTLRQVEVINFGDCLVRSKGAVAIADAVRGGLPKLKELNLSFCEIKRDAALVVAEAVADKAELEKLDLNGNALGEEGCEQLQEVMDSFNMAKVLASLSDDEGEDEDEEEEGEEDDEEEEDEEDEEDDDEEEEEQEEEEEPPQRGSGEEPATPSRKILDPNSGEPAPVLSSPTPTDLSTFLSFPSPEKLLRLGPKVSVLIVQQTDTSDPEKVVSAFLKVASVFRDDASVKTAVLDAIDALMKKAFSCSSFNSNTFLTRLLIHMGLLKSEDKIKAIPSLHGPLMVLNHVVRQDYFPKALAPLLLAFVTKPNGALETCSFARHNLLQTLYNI
# Chain of F-box only protein 40 (Mus musculus) (P62932 whole entry, the tested form may be a part): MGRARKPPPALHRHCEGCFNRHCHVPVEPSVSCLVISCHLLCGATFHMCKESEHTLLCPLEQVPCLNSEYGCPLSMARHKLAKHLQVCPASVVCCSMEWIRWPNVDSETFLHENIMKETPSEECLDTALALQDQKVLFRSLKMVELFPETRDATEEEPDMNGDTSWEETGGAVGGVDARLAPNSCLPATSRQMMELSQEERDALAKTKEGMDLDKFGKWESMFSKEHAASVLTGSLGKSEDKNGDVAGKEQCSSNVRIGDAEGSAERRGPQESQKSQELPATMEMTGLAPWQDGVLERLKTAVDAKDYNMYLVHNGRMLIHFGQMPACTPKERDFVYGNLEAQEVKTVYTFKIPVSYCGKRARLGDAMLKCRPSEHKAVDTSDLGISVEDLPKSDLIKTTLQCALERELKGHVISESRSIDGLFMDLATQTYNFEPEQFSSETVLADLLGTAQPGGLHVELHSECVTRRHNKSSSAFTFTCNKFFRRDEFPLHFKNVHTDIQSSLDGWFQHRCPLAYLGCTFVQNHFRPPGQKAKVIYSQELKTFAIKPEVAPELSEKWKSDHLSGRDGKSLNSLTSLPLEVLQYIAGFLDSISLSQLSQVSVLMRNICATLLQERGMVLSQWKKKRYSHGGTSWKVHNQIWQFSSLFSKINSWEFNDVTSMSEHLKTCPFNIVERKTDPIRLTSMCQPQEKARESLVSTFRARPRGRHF
# Chain of Nuclear mitotic apparatus protein 1 (Mus musculus) (E9Q7G0 whole entry): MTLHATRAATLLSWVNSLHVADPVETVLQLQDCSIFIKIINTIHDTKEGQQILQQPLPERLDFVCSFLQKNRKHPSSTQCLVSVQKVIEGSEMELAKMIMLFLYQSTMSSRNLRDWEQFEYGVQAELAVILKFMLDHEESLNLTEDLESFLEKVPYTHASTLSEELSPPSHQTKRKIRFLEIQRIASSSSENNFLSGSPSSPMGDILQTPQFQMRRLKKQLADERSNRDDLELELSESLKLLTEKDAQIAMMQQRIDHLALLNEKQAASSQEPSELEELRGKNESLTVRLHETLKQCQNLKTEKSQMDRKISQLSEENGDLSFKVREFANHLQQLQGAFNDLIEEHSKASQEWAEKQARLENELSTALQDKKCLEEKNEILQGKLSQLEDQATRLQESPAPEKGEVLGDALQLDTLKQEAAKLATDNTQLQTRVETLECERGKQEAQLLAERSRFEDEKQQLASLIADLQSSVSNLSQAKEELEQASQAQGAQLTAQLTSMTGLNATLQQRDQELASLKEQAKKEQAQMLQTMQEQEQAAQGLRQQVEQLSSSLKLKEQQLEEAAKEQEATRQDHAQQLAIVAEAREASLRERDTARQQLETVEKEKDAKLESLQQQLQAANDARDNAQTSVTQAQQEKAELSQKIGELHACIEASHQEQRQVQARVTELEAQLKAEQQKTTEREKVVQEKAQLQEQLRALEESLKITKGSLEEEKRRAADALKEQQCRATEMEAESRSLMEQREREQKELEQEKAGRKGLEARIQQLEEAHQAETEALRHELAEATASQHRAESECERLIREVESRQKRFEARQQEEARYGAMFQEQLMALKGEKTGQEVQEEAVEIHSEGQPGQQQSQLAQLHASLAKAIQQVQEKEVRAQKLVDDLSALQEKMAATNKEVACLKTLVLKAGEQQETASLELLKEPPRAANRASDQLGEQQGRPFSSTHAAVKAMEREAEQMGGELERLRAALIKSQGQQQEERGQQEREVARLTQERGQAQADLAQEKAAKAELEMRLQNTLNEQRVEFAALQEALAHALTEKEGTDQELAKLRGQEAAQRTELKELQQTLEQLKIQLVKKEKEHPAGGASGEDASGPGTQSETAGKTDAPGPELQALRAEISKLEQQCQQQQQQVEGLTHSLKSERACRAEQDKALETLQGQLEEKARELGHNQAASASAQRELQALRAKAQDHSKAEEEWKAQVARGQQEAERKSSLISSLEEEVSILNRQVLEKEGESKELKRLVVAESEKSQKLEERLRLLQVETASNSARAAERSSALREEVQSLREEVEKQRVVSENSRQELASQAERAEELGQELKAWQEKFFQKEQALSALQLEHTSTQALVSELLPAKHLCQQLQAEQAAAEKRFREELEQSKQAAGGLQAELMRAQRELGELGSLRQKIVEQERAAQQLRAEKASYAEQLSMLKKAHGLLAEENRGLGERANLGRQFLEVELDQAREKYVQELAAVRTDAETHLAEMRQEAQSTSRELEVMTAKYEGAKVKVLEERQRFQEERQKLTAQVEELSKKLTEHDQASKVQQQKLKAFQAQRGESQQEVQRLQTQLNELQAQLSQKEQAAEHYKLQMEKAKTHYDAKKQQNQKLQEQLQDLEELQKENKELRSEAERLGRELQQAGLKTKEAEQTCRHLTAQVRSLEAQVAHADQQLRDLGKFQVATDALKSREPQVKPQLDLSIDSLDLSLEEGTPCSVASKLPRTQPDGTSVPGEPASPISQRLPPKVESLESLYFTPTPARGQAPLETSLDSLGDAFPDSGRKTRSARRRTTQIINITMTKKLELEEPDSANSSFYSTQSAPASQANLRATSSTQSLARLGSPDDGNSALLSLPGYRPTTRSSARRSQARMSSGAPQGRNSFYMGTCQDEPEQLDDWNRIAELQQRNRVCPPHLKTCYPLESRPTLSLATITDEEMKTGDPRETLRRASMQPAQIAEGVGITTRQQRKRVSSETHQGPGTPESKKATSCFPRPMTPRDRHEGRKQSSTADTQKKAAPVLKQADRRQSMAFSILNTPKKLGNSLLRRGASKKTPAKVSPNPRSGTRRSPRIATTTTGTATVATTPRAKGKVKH
# Chain of Heparin cofactor 2 (Mus musculus) (P49182 24-478 limits assumed): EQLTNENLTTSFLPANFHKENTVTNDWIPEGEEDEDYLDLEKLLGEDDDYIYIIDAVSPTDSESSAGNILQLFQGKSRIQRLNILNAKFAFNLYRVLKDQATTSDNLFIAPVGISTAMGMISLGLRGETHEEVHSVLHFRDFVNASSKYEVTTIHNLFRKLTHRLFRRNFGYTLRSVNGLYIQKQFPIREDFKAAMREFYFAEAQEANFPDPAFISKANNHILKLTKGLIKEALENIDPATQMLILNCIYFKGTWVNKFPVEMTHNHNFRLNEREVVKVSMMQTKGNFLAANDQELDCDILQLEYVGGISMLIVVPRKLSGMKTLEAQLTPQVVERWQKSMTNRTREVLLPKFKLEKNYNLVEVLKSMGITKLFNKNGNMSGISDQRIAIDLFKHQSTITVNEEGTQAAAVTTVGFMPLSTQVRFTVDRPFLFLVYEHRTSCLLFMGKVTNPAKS
substance,measurement,setting,value
human BVES fused with 3xHA tag (from UniProt Q8NE79 1-360),AAV9-BVES-HA (IP-MS count),[1],2
same,AAV9-BVES-HA (IP-MS count),[2],2
same,AAV9-BVES-HA (IP-MS count),[3],5
same,AAV9-BVES-HA (IP-MS count),[4],4
same,AAV9-BVES-HA (IP-MS count),Ankyrin-2 (Mus musculus),36
same,AAV9-BVES-HA (IP-MS count),Sarcospan (Mus musculus),2
same,AAV9-BVES-HA (IP-MS count),[5],4
same,AAV9-BVES-HA (IP-MS count),[6],29
same,AAV9-BVES-HA (IP-MS count),[7],4
same,AAV9-BVES-HA (IP-MS count),[8],2
same,AAV9-BVES-HA (IP-MS count),[9],19
same,AAV9-BVES-HA (IP-MS count),Myocilin (Mus musculus),2
same,AAV9-BVES-HA (IP-MS count),Cullin-2 (Mus musculus),3
same,AAV9-BVES-HA (IP-MS count),[10],2
same,AAV9-BVES-HA (IP-MS count),[11],3
same,AAV9-BVES-HA (IP-MS count),[12],4
same,AAV9-BVES-HA (IP-MS count),[13],2
same,AAV9-BVES-HA (IP-MS count),[14],2
same,AAV9-BVES-HA (IP-MS count),[15],2
same,AAV9-BVES-HA (IP-MS count),[16],3
same,AAV9-BVES-HA (IP-MS count),[17],4
same,AAV9-BVES-HA (IP-MS count),[18],2
same,AAV9-BVES-HA (IP-MS count),[19],4
same,AAV9-BVES-HA (IP-MS count),[20],2
same,AAV9-BVES-HA (IP-MS count),[21],2
same,AAV9-BVES-HA (IP-MS count),[22],2
same,AAV9-BVES-HA (IP-MS count),[23],6
same,AAV9-BVES-HA (IP-MS count),[24],4
same,AAV9-BVES-HA (IP-MS count),[25],2
same,AAV9-BVES-HA (IP-MS count),[26],2
same,AAV9-BVES-HA (IP-MS count),[27],2
same,AAV9-BVES-HA (IP-MS count),[28],3
same,AAV9-BVES-HA (IP-MS count),Talin-2 (Mus musculus),3
same,AAV9-BVES-HA (IP-MS count),[29],2
same,AAV9-BVES-HA (IP-MS count),Dysferlin (Mus musculus),12
same,AAV9-BVES-HA (IP-MS count),[30],2
same,AAV9-BVES-HA (IP-MS count),[31],2
same,AAV9-BVES-HA (IP-MS count),[32],2
same,AAV9-BVES-HA (IP-MS count),[33],5
